# From patent publication US20250027068
# Target: pooled human IgG (human IgG1,2,3 and 4)
Protein,Enzyme Activity Endpoint Assay: Fab′2,Enzyme Activity Endpoint Assay: Fc,Enzyme Activity Endpoint Assay: IgG,Enzyme Activity Endpoint Assay: scIgG
PRT-307 (protein) MQITSVWTKGVTPLTPEQFRKNNEDVIHAPYLAHQGWYDITKAFDGKDNLLCGAATAGNMLHWWFDQNKTEIEAYLSKHPEKQKIIFNNQELFDLKAAIDTKDSQTNSQLFNYFRDKAFPNLSARQLGVMPDLVLDMFINGYYLNVGKTQSTDVNRPYQDKDKRGGIFDAVFTRGDQTTLLTARHDLKNKGLNDISTIIKQELTEGRALALSHTYANVSISHVINLWGADFNAEGNLEAIYVTDSDANASIGMKKYFVGRNAHGHVAISAKKIEGENIGAQVLGLFTLSSGKDIWQKLS,215 ng/µL,290 ng/µL,138 ng/µL,614 ng/µL
PRT-315 (protein) MQITSVWTKGVTPLTPEQFRENNEDVIHAPYLAHQGWYDITKAFDGKDNLLCGAATAGNMLHWWFDQNKTEIEAYLSKHPEKQKIIFNNQELFDLKAAIDTKDSQTNSQLFDYFRDKAFPNLSARQLGVMPDLVLDMFINGYYLNVFKTQSTDVNRPYQDKDKRGGIFDAVFTRGDQTTLLTARHDLKNKGLNDISTIIKQELTEGRALALSHTYANVSISHVINLWGADFNAEGELEAIYVTDSDANPSIGMKKYFVGRNAHGHVAISAKKIEGENIGAQVLGLFTLSSGKDIWQKLS,981 ng/µL,408 ng/µL,0 ng/µL,0 ng/µL
PRT-252 (protein) MVTSVWTKGVTPPTNFTYGEDVLHAPYVANQGWYDITKLFNGKDDLLCGAATAGNMLHWWFDQNKEQIENYLKKHPEKQKINFNGEQMFDVKEAIDTKDSQLDSKLFEYFLEKAFPNLSTKHLGVFPDHVIDMFINGYRLSLLNHGPTPVKRGSKDPRGGIFDAVFTRGDQSKLLTNRHDFKEKTLKEISDLIKQELTEGKALGISHTYANGRINHVINLWGADFDAEGNLEAIAVTDSDSNASIGMKKYFVGVNSSGKVAISAKEIEEDNIGAQVLGLFTLSTGQDIWNQTN,634 ng/µL,365 ng/µL,56 ng/µL,0 ng/µL
PRT-323 (protein) MTITSVWTKGVTPPTPEDFRENNEDVLHAPYVANQGWYDITKTFDGKDNLLCGAATAGNMLHWWFDQNKEEIERYLKKHPEKQKIIFNNQEWFDVKAAIDTKDSQTNSKLFNYFRDKAFPNLSARQLGVMPDLVLDMFINGYYLNLPKTQSTDVNRPYQDKDKRGGIFDAVFTRGDQTTLLTARHDLKNKGLNEISDLIKQELTEGKALALSHTYANVRINHVINLWGADFDAEGNLIAIYVTDSDANASIGMKKYAVGVNANGKVAISAKKIEGDNIGAQVLGLFTLSTGQDIWQKLS,130 ng/µL,256 ng/µL,235 ng/µL,743 ng/µL
PRT-331 (protein) MTITSVWTKGVTPPTPEDFRENNEDVLHAPYVANQGWYDITKTFDGKDNLLCGAATAGNMLHWWFDQNKEEIERYLKKHPEKQKIIFNNQELFDVKAAIDTKDSQTNSKLFDYFRDKAFPGLSARQLGVFPDLVLDMFINGYYLNLGKTQSTDVNRPYQDKDKRGGIFDAVFTRGVQTTLLTARHDLKNKGLNEISDLIKQELTEGKALALSHTYANVRINHVINLWGADFDAEGNLIAIYVTDSDANASIGMKKYFVGRNANGKVAISAKKIEGDNIGAQVLGLFTLSTGQDQWQKLS,954 ng/µL,398 ng/µL,0 ng/µL,0 ng/µL
PRT-244 (protein) MVTSVWTKGVTPPANFTQGEDVFHAPYVANQGWYDITKTFNGKDDLLCGAATAGNMLHWWFDQNKDQIKRYLEEHPEKQKINFNGEQMFDVKEAIDTKNHQLDSKLFEYFLEKAFPNLSTKHLGVFPDHVIDMFINGYRLSLLNHGPTPVKEGSKDPRGGIFDAVFTRGDQSKLLTSRHDFKEKNLKEISDLIKKELTEGKALGLSHTYANVRINHVINLWGADFDSNGNLKAIAVTDSDSNASIGMKKYFVGVNSSGKVAISAKEIKEDNIGAQVLGLFTLSTGQDSWNQTN,998 ng/µL,429 ng/µL,0 ng/µL,0 ng/µL
